Assays:
[1] = tested on: ADRP; settings: cited from earlier work
[2] = tested on: lipid droplets; experiment: Intracellular localization of core proteins and lipid droplets (indirect immunofluorescence, oil red O, confocal microscopy); format: cell-based, hamster; settings: BHK C13 cells, 20 hours after electroporation, antibody JM122 and oil red O
Description: BHK C13 cells were harvested 20 hours after electroporation and fixed with 4% paraformaldehyde, 0.1% Triton X-100. Indirect immunofluorescence was performed with antibody JM122 and an anti-mouse secondary antibody conjugated with FITC. Lipid droplets were stained with oil red O. Panels A, D, G, J, M, P, S and V show the distributions of core protein. Panels B, E, H, K, N, Q, T and W show the locations of lipid droplets. Panels C, F, I, L, O, R, U and X are merged images of core protein and lipid droplets. Cells were electroporated with RNA from the following constructs: panels A, B and C, pSFV.1-195; panels D, E and F, pSFV.1-173; panels G, H and I, pSFV.1-169; panels J, K and L, pSFV.1-153; panels M, N and O, pSFV.Δ155-161; panels P, Q and R, pSFV.Δ161-166; panels S, T and U, pSFVA125-144; panels V, W and X, pSFV.1-124, 145-152.
(§1) 0.8 ml of competent cells were mixed with in vitro transcribed RNA in an electroporation cuvette (0.4 cm gap) and pulsed twice at either 1.2 kV, 25 μF (for BHK C13 cells) or 0.36 kV, 960 μF (for MCA RH7777 cells). Between pulses, the cell/RNA suspension was gently mixed. Following electroporation, cells were diluted in growth medium and seeded onto either tissue culture dishes or coverslips in 24-well tissue culture plates and then incubated at 37° C.
(§2) Cells on 13 mm coverslips were fixed in either methanol at −20° C. or 4% paraformaldehyde, 0.1% Triton X-100 (prepared in PBS) at 4° C. for 30 mins. Following washing with PBS and blocking with PBS/CS (PBS containing 1% newborn calf serum), cells were incubated with primary antibody (diluted in PBS/CS at 1/200 for JM122 antibody, 1/1000 for 308 antisera and 1/100 for adipophilin antibody) for 2 hours at room temperature. Cells were washed extensively with PBS/CS and then incubated with conjugated secondary antibody (either anti-mouse or anti-rabbit IgG raised in goat) for 2 hours at room temperature. Cells were washed extensively in solutions of PBS/CS followed by PBS and finally H2O before mounting on slides using Citifluor. Samples were analyzed using a Leiss LSM confocal microscope.
Following incubation with both antibodies and washing, lipid droplets were stained in paraformaldehyde-fixed cells by briefly rinsing coverslips in 60% propan-2-ol followed by incubation with 0.5 ml 60% propan-2-ol containing oil red O for 1.5-2 mins at room temperature. Coverslips were briefly rinsed with 60% propan-2-ol, washed with PBS and H2O and mounted as described above. The oil red O staining solution was prepared from a saturated stock of approximately 1% oil red O dissolved in propan-2-ol. Before staining, the stock was diluted with H2O and then filtered.
This conclusion was arrived at by combining the techniques of immune electron microscopy with the ability to stain lipid with osmium tetroxide. However, this method suffers from the disadvantages that it is time-consuming and osmium tetroxide can stain other biological molecules (e.g. proteins) in addition to lipid. Therefore, we developed a method for detecting proteins firstly by indirect immunofluorescence followed by staining of lipid droplets with the oil-soluble colorant oil red O. Combined with the method of confocal microscopy, it is possible to visualize the intracellular localizations of core protein and lipid droplets separately and together. Here, BHK C13 cells have been electroporated with pSFV.1-195 RNA and, following incubation at 37° C. for 20 hours, the cells have been examined by both indirect immunofluorescence and staining with oil red O. In panel A, the core protein produced by pSFV.1-195 is seen to locate to vesicular structures in the cytoplasm.

[3] = tested on: ADRP; experiment: Effect of expression of core proteins on the ability to detect ADRP in BHK C13 cells by confocal microscopy; format: cell-based, hamster; settings: 20 hours after electroporation, anti-adipophilin antibody
Description: Cells were harvested 20 hours after electroporation and fixed with methanol. ADRP was detected with anti-adipophilin antibody and core protein with 308 antisera. Secondary antibodies were an anti-mouse IgG conjugated with FITC (for anti-adipophilin) and anti-rabbit IgG conjugated with Cy5 (for 308 antisera). Panels A, D, G, J, M and P are images of ADRP localization. Panels B, E, H, K, N, and Q are images of core distribution. Panels C, F, I, L, O and R show the merged images of core and ADRP distributions. Cells were electroporated with RNA from the following constructs: panels A, B and C, pSFV.1-195; panels D, E and F, pSFV.1-173; panels G, H and I, pSFV.1-169; panels J, K and L, pSFV.1-153; panels M, N and O, pSFV.Δ155-161; panels P, Q and R, pSFV.Δ161-166.
as §1, §2

[4] = tested on: ADRP; experiment: Effect of expression of core protein on the abundance of ADRP (Western blot); format: cell-based, hamster; settings: BHK C13 cells, extracts at various times following electroporation
Description: BHK C13 cells were electroporated with RNA from pSFV.1-195 and pSFV.1-153 and extracts were prepared at the times indicated following electroporation. Aliquots of cell extracts were electrophoresed on 10% polyacrylamide gels and then the proteins were transferred to nitrocellulose membrane for Western blot analysis. The upper panels show membranes probed with JM122 antibody while, in the lower panels, membranes were probed with anti-adipophilin antibody. Bands corresponding to core proteins, expressed from pSFV.1-195 and pSFV.1-153, and ADRP are arrowed.
To prepare extracts, electroporated cells were harvested by removing the growth medium and washing the cell monolayers with PBS. Cells were scraped into PBS and pelleted by centrifugation at 100 g for 5 mins at 4° C. The cell pellet was solubilized in sample buffer consisting of 160 mM Tris (pH 6.7), 2% SDS, 700 mM β-mercaptoethanol, 10% glycerol, 0.004% bromophenol blue.
For Western blot analysis, proteins were separated on polyacrylamide gels and transferred to nitrocellulose membrane using standard techniques. The nitrocellulose membrane was blocked in 3% gelatin, 20 mM Tris (pH 7.5), 500 mM NaCl for at least 6 hours at 37° C. prior to incubation with the primary antibody. […] Bound antibody was detected by enhanced chemiluminescence.

Molecule: COc1ccc2c(c1)c(CC(=O)O)c(C)n2C(=O)c1ccc(Cl)cc1 [indomethacin]
- ADRP expression [1]: stimulate ADRP expression

Molecule: CC(C)Cc1ccc(C(C)C(=O)O)cc1 (stereo not drawn) [ibuprofen]
- ADRP expression [1]: stimulate ADRP expression

B1: pSFV.Δ155-161: construct lacking the sequences encoding residues 155 to 161 of the core protein of HCV strain Glasgow (protein)
chain: GACECPGRSRRPCTMSTNPKPQRKTKRNTNRRPQDVKFPGGGQIVGGVYLLPRRGPRLGVRATRKTSERSQPRGRRQPIPKARRPKGRNWAQPGYPWPLYGNEGCGWAGWLLSPSGSRPSWGPNDPRRRSRNLGKVIDTLTCGFVDLMGYIPLVARALAHGVRVLEDGVNYATGNLPGCSFSIFLLAL
- intracellular localization of core protein relative to lipid droplets [2]: did not affect lipid droplet association
- ADRP detected by immunofluorescence in core-expressing cells [3]: barely detectable

B2: pSFV.1-153: SFV construct encoding amino acid residues 1-153 of HCV strain Glasgow core (protein)
chain: GACECPGRSRRPCTMSTNPKPQRKTKRNTNRRPQDVKFPGGGQIVGGVYLLPRRGPRLGVRATRKTSERSQPRGRRQPIPKARRPKGRNWAQPGYPWPLYGNEGCGWAGWLLSPSGSRPSWGPNDPRRRSRNLGKVIDTLTCGFVDLMGYIPL
- intracellular localization of core protein relative to lipid droplets [2]: do not associate with lipid droplets
- ADRP detected by immunofluorescence in core-expressing cells [3]: readily found
- abundance of ADRP by Western blot [4]: no change in the abundance of ADRP

B3: pSFV.Δ161-166: construct lacking the sequences encoding residues 161 to 166 of the core protein of HCV strain Glasgow (protein)
chain: GACECPGRSRRPCTMSTNPKPQRKTKRNTNRRPQDVKFPGGGQIVGGVYLLPRRGPRLGVRATRKTSERSQPRGRRQPIPKARRPKGRNWAQPGYPWPLYGNEGCGWAGWLLSPSGSRPSWGPNDPRRRSRNLGKVIDTLTCGFVDLMGYIPLVGAPLRGHGVRVLEDGVNYATGNLPGCSFSIFLLAL
- intracellular localization of core protein relative to lipid droplets [2]: diffuse cytoplasmic pattern
- ADRP detected by immunofluorescence in core-expressing cells [3]: readily found

B4: pSFV.1-169: SFV construct encoding amino acid residues 1-169 of HCV strain Glasgow core (protein)
chain: GACECPGRSRRPCTMSTNPKPQRKTKRNTNRRPQDVKFPGGGQIVGGVYLLPRRGPRLGVRATRKTSERSQPRGRRQPIPKARRPKGRNWAQPGYPWPLYGNEGCGWAGWLLSPSGSRPSWGPNDPRRRSRNLGKVIDTLTCGFVDLMGYIPLVGAPLRGAARALAHGV
- intracellular localization of core protein relative to lipid droplets [2]: continue to locate to lipid droplets
- ADRP detected by immunofluorescence in core-expressing cells [3]: barely detectable

B5: pSFV.1-173: SFV construct encoding amino acid residues 1-173 of HCV strain Glasgow core (protein)
chain: GACECPGRSRRPCTMSTNPKPQRKTKRNTNRRPQDVKFPGGGQIVGGVYLLPRRGPRLGVRATRKTSERSQPRGRRQPIPKARRPKGRNWAQPGYPWPLYGNEGCGWAGWLLSPSGSRPSWGPNDPRRRSRNLGKVIDTLTCGFVDLMGYIPLVGAPLRGAARALAHGVRVLE
- intracellular localization of core protein relative to lipid droplets [2]: continue to locate to lipid droplets
- ADRP detected by immunofluorescence in core-expressing cells [3]: barely detectable

B6: pSFV.Δ125-144: construct expressing a core variant in which residues 125 to 144 had been deleted (protein)
chain: GACECPGRSRRPCTMSTNPKPQRKTKRNTNRRPQDVKFPGGGQIVGGVYLLPRRGPRLGVRATRKTSERSQPRGRRQPIPKARRPKGRNWAQPGYPWPLYGNEGCGWAGWLLSPSGSRPSWGPNVDLMGYIPLVGAPLRGAARALAHGVRVLEDGVNYATGNLPGCSFSIFLLAL
- intracellular localization of core protein relative to lipid droplets [2]: diffuse fluorescence

B7: pSFV.1-124,145-152: core variant truncated at residue 152 and lacking amino acids 125 to 144 (protein)
chain: GACECPGRSRRPCTMSTNPKPQRKTKRNTNRRPQDVKFPGGGQIVGGVYLLPRRGPRLGVRATRKTSERSQPRGRRQPIPKARRPKGRNWAQPGYPWPLYGNEGCGWAGWLLSPSGSRPSWGPNVDLMGYIP
- intracellular localization of core protein relative to lipid droplets [2]: diffuse fluorescence

B8: pSFV.1-195: SFV construct encoding the N-terminal 195 amino acids of HCV strain Glasgow (core protein) (protein)
chain: GACECPGRSRRPCTMSTNPKPQRKTKRNTNRRPQDVKFPGGGQIVGGVYLLPRRGPRLGVRATRKTSERSQPRGRRQPIPKARRPKGRNWAQPGYPWPLYGNEGCGWAGWLLSPSGSRPSWGPNDPRRRSRNLGKVIDTLTCGFVDLMGYIPLVGAPLRGAARALAHGVRVLEDGVNYATGNLPGCSFSIFLLAL
- intracellular localization of core protein relative to lipid droplets [2]: sited around the lipid droplets
- ADRP detected by immunofluorescence in core-expressing cells [3]: either lacked or contained barely detectable amounts of ADRP
- abundance of ADRP by Western blot [4]: rapid reduction in ADRP levels to barely detectable quantities

— patent publication US20020115066A1, “Viral therapeutics” (priority 1998, published 2002)
